Patent US20020086983A1 (THOMAS JEFFERSON UNIVERSITY, published 2002)

T1: T7-FLAME-2 (Homo sapiens (Human), UniProt O75618 1-318)
T1 sequence: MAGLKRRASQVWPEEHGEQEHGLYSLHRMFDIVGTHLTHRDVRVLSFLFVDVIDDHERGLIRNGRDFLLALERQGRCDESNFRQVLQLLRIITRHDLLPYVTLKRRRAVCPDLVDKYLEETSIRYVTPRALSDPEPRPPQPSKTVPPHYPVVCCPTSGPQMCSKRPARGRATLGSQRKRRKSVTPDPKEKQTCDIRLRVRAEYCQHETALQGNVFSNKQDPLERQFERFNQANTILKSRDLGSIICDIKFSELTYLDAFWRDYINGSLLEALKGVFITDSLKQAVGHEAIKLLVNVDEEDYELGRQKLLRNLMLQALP

B1: B42-FADD-DED (murine FADD-DED, residues 1-78) (other, UniProt Q61160 1-78, looked up, not shown: large carriers)
chain: MDPFLVLLHSLSGSLSGNDLMELKFLCRERVSKRKLERVQSGLDLFTVLLEQNDLERGHTGLLRELLASLRRHDLLQR
notes: range 1-78
B2: Flag-tagged Fas (receptor, UniProt P25445 26-335, looked up, not shown: small tags and cut ends)
chain: QVTDINSKGLELRKTVTTVETQNLEGLHHDGQFCHKPCPPGERKARDCTVNGDEPDCVPCQEGKEYTDKAHFSSKCRRCRLCDEGHGLEVEINCTRTQNTKCRCKPNFFCNSTVCEHCDPCTKCEHGIIKECTLTSNTKCKEEGSRSNLGWLCLLLLPIPLIVWVKRKEVQKTCRKHRKENQGSHESPTLNPETVAINLSDVDLSKYITTIAGVMTLSQVKGFVRKNGVNEAKIDEIKNDNVQDTAEQKVQLLRNWHQLHGKKEAYDTLIKDLKKANLCTLAEKIQTIILKDITSDSENSNFRNEIQSLV
notes: Expressed in 293T cells and immunoprecipitated with the anti-Flag antibody

Tests used:
[1] = target: LexA-FLAME-1-FDH (residues 1-160) (human, UniProt O15519 1-160); experiment: yeast two-hybrid assay
[2] = target: T1, T7-FLAME-2; experiment: co-immunoprecipitation from transfected 293T cells with Flag-tagged Fas, with or without T7-FADD
Procedure: After 34-36 h, extracts were prepared and immunoprecipitated with a monoclonal antibody to the Flag-epitope. […] Cells were lysed in a lysis buffer (50 mM Tris, pH 7.6, 150 mM NaCl, 0.1 NP-40) and incubated with anti Flag-M5 monoclonal antibody (IBI Kodak). The immune complexes were precipitated with protein-A/G-Sepharose, washed and then eluted by boiling in SDS-sample buffer. The eluted proteins were resolved by SDS-PAGE and detected by Western analysis with a HRP-conjugated T7-antibody (Novagen). The samples were analyzed by SDS-PAGE and Western blotted with a horseradish peroxidase (HRP)-conjugated T7-antibody. All extracts were immunoblotted with anti-Flag and anti-T7 to verify expression of the encoded proteins.

Binder | binding result [1] | binding result [2]
B1 | binds | 
B2 |  | no binding
